Biological target: αVβ3 integrin receptor on choroid endothelial cells (RF/6A)
Assay: cell-based or functional assay

IC50, MTT assay of RF/6A choroid endothelial cell proliferation induced by VEGF 165 (50 ng/ml) [nM]	inhibition of RF/6A cell proliferation at 15.6 nM (MTT assay) [%]	Substance
5.97	84	transferrin-tumstatin protein (recombinant fusion, secreted from ARPE cells, histidine tagged) (from UniProt P02787 20-698; Q01955 1426-1670)
186	–	tumstatin protein (recombinant, secreted from ARPE cells, histidine tagged) (from UniProt Q01955 1426-1670) (ligand)

From patent US20140179612A1
